The series relates to E. necator. Nature of the series: Leaf disc assay, dry inoculum (settling tower), decrease in disease severity / hyphal growth (Example 2). Particulars: decrease in disease severity (hyphal growth) relative to untreated control, value ± SE; for % decrease =/− SE TP2: time point 2; for % decrease =/− SE TP1: time point 1 (untreated control hyphal growth ≥50%).

B1: GS1849: dsRNA trigger SEQ ID NO 143; gene target Chitin synthase 8 (nucleic acid)
chain: TTGAGAAGCAGCCAACCATGTATTAACAACTAAGCTAGTGCTTGCATCAAGTTTATATGATTGCGTAGACGTGTAAGCAGTATGGATTGAGTTTAGGAGAGTAGTCGATGAGACTTGCGCTGGAGGTTGAGAAGTAGAATTGTTATTTCGAACACCTCCATACGCTGAAGAGGTAGTTGAATAGATAGACATCCGGTGAGTTCCAGTCATTTTATGAAGAGTGATCGAGTTTTTAGACCTTTCCACGTATGGATATTTAAGGTATGTAAATGAGTCAATTCAAAGTCACAAGATTCTCGATCAGTCGATTGATTGGCTTATTGACAATATTCTTTAGCCGAAATCTTAGACAATGGCTTGACAGAATTAATGTCTGGTCTTCGAAGTATCCAGTTGGTGTGTAGCAGATAACTTCGGTATAGTTGTAGAAATGGAAAACAAACCGCAAAAGACAGTCTTGTATCGACCGTGAGGCCGACAGTAGGAGAAATTCAATGCTATTGAGAAATTGAACAACCAAAAAGCGAAAGTAGGGTAACAAGTTTCGACTCACAGACCTA
Regarding B1, the “% decrease =/− SE TP2” value is reported as 5 ± 8%.

B2: GS1856: dsRNA trigger SEQ ID NO 214; gene target Zinc finger and SCAN domain-containing protein 20 (nucleic acid)
chain: GACCATTGTGGTCTTTCGACAAAATGATTTCAAACAGCCCTCGTGTGCACATTTGTATGGTCTTTTTCCTGTATGAATACGACGATGACGAGCCAGACTAGATGAATCAGAGAATCGTTTCCCACAACCAAGATGCTGGCATTGATGTGGCTTTTCGCCAGTGTGTGTTCGAATGTGCACAGTTAAGGCACTTCTTTGAATGAAACTTTTTCCACATCCAGGCTGCATGCATGAATATGGCCGTTCGTTGGTATGTATTCGATAGTGGCGTTGAAGGTCAGACTTCCTGTTGAAACTCTTGTGACATGTCTGCCAATCACACTGAAATGGTCTCGCATTAGGTTCGTTTTCAACGAGCTCCATTACATCCATAGTGAACCGACAAGTAGTGTCGAATGTATGCAATGTCGGAGAAGTTAAGGGTTGGACAAGAGGTACCGCAGCAAAAGCTGCAGGTGTGGTGATTAGGTGGGGATGGGTGTCGAATATATAAGATTGCGATTCTCTATTTAAAGAAAAAAGAAATATAAGCAAAATAAAATATTTCTTTTGA
In the case of B2, the “% decrease =/− SE TP1” value is recorded as 1 ± 7% and the “% decrease =/− SE TP2” value stood at 6 ± 8%.

B3: GS1857: dsRNA trigger SEQ ID NO 129; gene target Transcriptional adapter 2 (nucleic acid)
chain: CTTGCTTGAAATTCTTCTCGTGGAATTTCTTCAAGAAGCTGAGTATCCTTGAGACTAGCTCTAACAGGTAGGGGAAACTTTGGACTATCCAGATAAACTTTCTGATAATGCGCCTTAACTTCGTCCTTGTCTCGATAACCTCCAATATGGTCTGCTATATCTGCCCATGATCCAAAGCCATATATTTCGGCTCCCTCCAAAAGAAGTAATTCTTCATCAGCACCCCAGTTTCTGTCATATATGGGAACTGAATTTTGCTCTATTACTCGGTATGGATGGGTTCCTGGGTTGTGGTTGTGTGAAGCTTCGCCATTTGAGAAGCATAGCACACAAAGATCATAATCATGACAGTGAGGGTCAGCACACCTAATTCGAACTGTCGAGGTAATGTCTGCTGAGCATACATCGCATACATACTTAACACCTCCCTCGGCACCTCGGGTCGCAGTCTTCTTCCTGATTTGGCCCATTGCTAAAACTCATGGTCAGTACTAGCAACAGAGCTCCCCTTGGTAGCACGAAGTTAAAACTGCAAATCCTTAAAATTTT
In the case of B3, the “% decrease =/− SE TP1” value is listed as 28 ± 5% and the “% decrease =/− SE TP2” value amounted to 14 ± 7%.

B4: GS1859: dsRNA trigger SEQ ID NO 207; gene target Citrate/oxoglutarate carrier protein (nucleic acid)
chain: AGGATCTTCTTTTGCTCTGCATTTCAACTCGAATAACCTCAATTGGTTGATTCCACGCACTCAACCCTCCCCCAAGGGCACTAGCGAGAATTCGTTCCCAAGCACTTAATGGACCGCCATTTTCTTTTCCTGAAACCTTTCGGATTCCCTGTTCTGCCAAACGACTTAATCCAAATCTGGATCCCCAATTCGTCATTTGTCGAATGGCAACAGCATTCACACCTTTATTAATACCTCTGATCCCATCTTTACGGTATATATCCATAAATGTTGAGAAAGTTCCTGGGGGCTTTACACCAGTGGATGCTAATTTGGATTTCGTAATCTCCACAGTTTTCATGCATGTACAAAAGCCCATAGTGGCATATGCTTGAGCCATACCCCCGACAACGCCTCCTGTGATGCCGGCTGTGAAGATGCCGGCTCCAAAACTTCGAGCATAGAATTCTGCTTCTGAAGCGACAAATAGAAGAACTGCACCTTTTGATGAAGCTTCAATCCAAGCCCATGGGATCAAGCCCTGATAAAAACCCAAAACA
With B4, the “% decrease =/− SE TP1” value is listed as 32 ± 5% and the “% decrease =/− SE TP2” value was 26 ± 7%.

B5: GS1853: dsRNA trigger SEQ ID NO 204; gene target Uncharacterized WD repeat-containing protein C17D11.16 (nucleic acid)
chain: CGGACTTCTTGGTCAGGCGCAAAAGAAGTTGAAAATACCTTTCCAACTTCCAAATCTCTGGACACTATCATTGAGGGGCCCGATGGCTGAATATTCCACAGTTTTACGAGTTTATCAGAAGACCCTGTGGCCATAAACCCGGGAATGATAGGATTAATATCAAAAGCACAAACTGATTTGTCATGTGCTTGCAATAACCAAACTGGCTTACTAGAACTGGGAGTAGATGGTGCCATTCGTATATCGTGATAATGGACCATACCACCTTCTGTCGTTACGTAAAAGAAATTTGGGTTGTGTGCATCCCATTTGACAGCTTCTACATCACTTTCTACACCCCAAATCGGCACTTTGGATTCTGGTGCTCTCATGTCGGCCGCTACGACACTCCGATCATAACTTCCACTAAGTAAGACAGTGGAGTCAACAGGATGCCATTGTATTGAGCAAACTTTATCTGAATGATTACTATATGATTTAGCACATTTATTAGTATTAAGGTCCCATAGTTTGACAGTCTTGTCGGCGGAAGAAGAGGCAAGTAAATTTTGGTGTT
As for B5, the “% decrease =/− SE TP1” value is given as 14 ± 6% and the “% decrease =/− SE TP2” value worked out at 0 ± 5%.

B6: GS1855: dsRNA trigger SEQ ID NO 212; gene target Golgi apyrase (nucleic acid)
chain: TAACACCCGCAGTTGCCATCAGAAAGAAGGGAGTATCTTTAACTTGATTCTCAGGTACAATACTCAATGCATGATCTAGTAAGCTTTGAAGATGTTCAGGACCAATATCTGTTATGCGATCGGCAAAGGAAGAGACGCCGGGTTTGATTTTTTTTGAATATCCAGGTTTAGTGTGTAACTGAGGTAGTTGGTTCAATTGAATCTCATTTTTTGCATCGTAACGAGCTCGAGATGTATTGAGCCACCGGTAGACGTGGACTCGAGTCCCTGACGAGCCCGCGTCTAAGATAACCCCCCATCGCCATTTACCCATAAGTAGCCTATCGTTACGGTTTGGCGATGCCGGTCTAGGATATGTGCTTCAATATCAAAAATAATCCGTGAAGCGTTACAAAAACATGAGTCAATTATACGGAATTTGAAACGAGTGTGAAAGGAAGTCGGCAGACTCAAAAATAAAAAAGAAAGATAATAATTCGAATTTGAATGAGAATGAGTAGTGGTCGGATAAGATGTTTAATGCTAAGTGCTAAGATAACTGACTAAGACTTGAT
Take B6: the “% decrease =/− SE TP1” value is 26 ± 4% and the “% decrease =/− SE TP2” value was 10 ± 6%.

B7: GS1852: dsRNA trigger SEQ ID NO 202; gene target PA-phosphatase related-family protein DDB_G0275547 (nucleic acid)
chain: TTCTCTTAGGGACGGTTGGCATCATTATTAATTTTGCAGAACCAATTCCATCTCGATCTTTTCCGATTTATTCTCAAAATGGAGATATTGTTTATCCTCAATTTGCATATCCTCTTCGCAAGAATATCATTCCAATTTGGGTAGCAATTTTGTTGGCTTCACTTATTCCTTTGCTCATCATTTTCCTTACACAATTTCGTATTCGCTCGTTTTGGGATGCAAACAACGCGATTACAGGGCTATTATACTCCCTTATTATCGCCGGAGTGTTTCAAGTCTTCTTAAAGTGGTTAATTGGAGGGCTGAGACCTCATTTTCTAACCGTCTGTGAGCCAATAATTCCAACACGTGCTCCAATAAAGGCTAGATATGGGCCTAGAATAATAATGTACGACAGAAATGTCTGCACTGGCGACAAAAGGCAGATCAATAATTCTCTTGAATCATTCCCTTCAAGCCAATCGACTGTAGCATTTTCTGGTTTCGTTTATTTGGCTATATACCTGAATGCAAAACTTAAAATTTGGTCTAATTACCATTCTGCCATGTGGAAGAT
In the case of B7, the “% decrease =/− SE TP1” value worked out at 22 ± 4%.

B8: GS1850: dsRNA trigger SEQ ID NO 198; gene target Ubiquitin-conjugating enzyme E2-34 kDa (nucleic acid)
chain: TCGTCATCCTCGTCTTGTTCAAAATCATAGTTATCATCGTCTGAGCTCTCGCTGGTACCGAACTCATCCTGATCATCACTCTCGTTCCAGAAATCATCGTCATCATTAATTTGCGGAGGAGGCGCCTCAATTAATGTTTTTGGCATCACAAAACCCTCCGGTATATCTCTCATAGAAATTCTTACTGTCTCCAAAGCCCGCTGTTTGTAAGCCTCCAGGTTATCCCGATACATAACGCTGGCATCAACATTTGCAGGGGAGGTAATCTCAGGGTCATCTAGTAAGAGAAGAATAGAGCGGAGAACACTTTCAACACTCTGAATTGATGACCAGCGCTCACAAGCAAGCTCTCCAGATTGTTCATCATCTCCAGCAGCGTGTAGTATTGAGATGCAAACCCTGCCATCAGGATATATATTTGGATGGTAAATAGGTTGCAAGAATTTGAAGGTCGGAGGAGCATAAGGATATTTATCAGTAAAACCCATTTCAGCCTTAAAATAAGCCCCATCGAAAGCACTTTCTGGGTTGACTACTATTAGAGCGATTAACCACTTGAA
On to B8, for which the “% decrease =/− SE TP1” value is given as 13 ± 6% and the “% decrease =/− SE TP2” value is 0 ± 6%.

These data come from patent US12077763B2, “RNA-based control of powdery mildew” (Greenlight Biosciences, Inc., priority 2021, dated 2024).
